Source: US20170313769A1 (Pfizer, published 2017)
Changes are numbered by the printed parent chain.

B1: CTI-AF15 (antibody, human IgG1, kappa, V domains shown)
VH: QVQLVQSGAEVKKPGSSVKVSCKASGYTFSRYWMHWVRQAPGQGLEWMGHIDPSDSYTYYNQKFKGRVTITADESTSTAYMELSSLRSEDTAVYYCARWDYGNLLFEYWGQGTLVTVSS
VL: DIQMTQSPSSLSASVGDRVTITCRTSQDISSYLNWYQQKPGKAFKLLIYSTSRLHSGVPSRFSGSGSGTDFTLTISSLQPEDFATYYCQQGIILPITFGGGTKVEIKR
B2: CTI-AF5 (antibody, human IgG1, kappa, V domains shown)
VH: B1 VH
VL: B1 VL with S31N, S50T, H55R, I93V
B3: CTI-AF16 (antibody, human IgG1, kappa, V domains shown)
VH: B1 VH
VL: B1 VL with S31N, S50T, H55R
B4: CTI-AF14 (antibody, human IgG1, kappa, V domains shown)
VH: B1 VH
VL: B1 VL with S31N, Y49F
B5: CTI-AF20 (antibody, human IgG1, kappa, V domains shown)
VH: B1 VH
VL: B1 VL with S50T, H55R, I93V
B6: CTI-AF9 (antibody, human IgG1, kappa, V domains shown)
VH: B1 VH
VL: B1 VL with S31N, Y49F, G91S, I92T, I96L
B7: CTI-AF27 (antibody, human IgG1, kappa, V domains shown)
VH: B1 VH
VL: B1 VL with S30D, S31N, Y32F, N34Q, Y49F, R53K
B8: CTI-AF8 (antibody, human IgG1, kappa, V domains shown)
VH: B1 VH
VL: B1 VL with S30G, S31N, G91S, I92T, I96L
B9: CTI-AF10 (antibody, human IgG1, kappa, V domains shown)
VH: B1 VH
VL: B1 VL with G91S, I92T, I96L
B10: CTI-AF23 (antibody, human IgG1, kappa, V domains shown)
VH: B1 VH
VL: B1 VL with S50T, H55R, G91S, I92T, I96L
B11: CTI-AF4 (antibody, human IgG1, kappa, V domains shown)
VH: B1 VH
VL: B1 VL with I93V
B12: CTI-AF21 (antibody, human IgG1, kappa, V domains shown)
VH: B1 VH
VL: B1 VL with S30D, S31N, Y32F, N34Q, Y49F, R53K, I93V
B13: humanized parent of CTI-AF1 before affinity maturation (antibody, V domains shown)
VH: B1 VH
VL: DIQMTQSPSSLSASVGDRVTITCRTSQDISNYLNWYQQKPGKAFKLLIYSTSRLHSGVPSRFSGSGSGTDFTLTISSLQPEDFATYYCQQGHTLPLTFGGGTKVEIK
notes: no mutations were made in VH

Target: T1, Human IFNβ (mature human interferon beta) (human, UniProt P01574 22-187)
Assay: cell-based or functional assay

T1 sequence (P01574 22-187): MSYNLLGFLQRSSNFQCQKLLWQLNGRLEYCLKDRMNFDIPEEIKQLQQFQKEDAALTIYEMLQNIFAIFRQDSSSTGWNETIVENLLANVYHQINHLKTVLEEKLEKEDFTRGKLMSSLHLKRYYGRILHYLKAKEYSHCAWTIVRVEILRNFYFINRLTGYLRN

Compared with B1, B2 is lower in “IC50 (pM) pSTAT1 Inhibition” value: 80 pM for the first, 10 pM for the second.

First: B4
Second: B5
The “IC50 (pM) pSTAT1 Inhibition” value of the first is higher: 30 pM for the first, 20 pM for the second.

In the case of B7, the “IC50 (pM) pSTAT1 Inhibition” value is reported as 70 pM.

First: B3
Second: B6
The “IC50 (pM) ISRE Neutralization” value of the first is lower: 14 pM for the first, 75 pM for the second.

With B8 the “IC50 (pM) ISRE Neutralization” value was 460 pM.

Target: T1, Human IFNβ (mature human interferon …)
Assay: Octet (BLI) response rank; method not described

Compared with B1, B9 is higher in “Response rank (Octet)” value: 3 rank for the first, 5 rank for the second.

Going from B3 to B4, the “Response rank (Octet)” value rises from 2 rank to 7 rank.

Going from B5 to B10, the “Response rank (Octet)” value rises from 8 rank to 9 rank.

Compared with B6, B11 is lower in “Response rank (Octet)” value: 12 rank for the first, 4 rank for the second.

Going from B7 to B8, the “Response rank (Octet)” value falls from 10 rank to 6 rank.

With B12 the “Response rank (Octet)” value was 11 rank.

Target: T1, Human IFNβ (mature human interferon …)
Assay: SPR (affinity maturation); before the light chain mutations (parent antibody)

Binder B13 has a Kd of 25 nM.

Target: T1, Human IFNβ (mature human interferon …)
Assay: SPR, Biacore T200; antibody amine-coupled on CM5 chip, human IFNβ as analyte, 1:1 model

In the case of B5, the Kd is reported as 0.335 nM.
